Test results: paper doi:10.1101/192484 (bioRxiv, 2018)
Substitutions are numbered along the chain they refer to. In names and notes the source's numbering stands. Like-named read-outs stand apart in the source and are kept apart here.

B1: ATL3 22-442 WT (soluble domain: GTPase domain, linker and 3HB middle domain) (domain or fragment, human, UniProt Q6DD88 22-442, looked up)
chain: SKPGPVQVVLVQKDQHSFELDEKALASILLQDHIRDLDVVVVSVAGAFRKGKSFILDFMLRYLYSQKESGHSNWLGDPEEPLTGFSWRGGSDPETTGIQIWSEVFTVEKPGGKKVAVVLMDTQGAFDSQSTVKDCATIFALSTMTSSVQIYNLSQNIQEDDLQQLQLFTEYGRLAMDEIFQKPFQTLMFLVRDWSFPYEYSYGLQGGMAFLDKRLQVKEHQHEEIQNVRNHIHSCFSDVTCFLLPHPGLQVATSPDFDGKLKDIAGEFKEQLQALIPYVLNPSKLMEKEINGSKVTCRGLLEYFKAYIKIYQGEDLPHPKSMLQATAEANNLAAAASAKDIYYNNMEEVCGGEKPYLSPDILEEKHCEFKQLALDHFKKTKKMGGKDFSFRYQQELEEEIKELYENFCKHNGSKNVFSTFR
B2: ATL3 22-442 P338R (domain or fragment, human, UniProt Q6DD88 22-442, looked up)
chain: B1 chain with P317R
B3: ATL3 22-442 Y192C (domain or fragment, human, UniProt Q6DD88 22-442, looked up)
chain: B1 chain with Y171C

What was measured:
[1] = target: the molecule itself; test: SEC-MALS
[2] = target: the molecule itself; test: SEC-MALS; remark: listed apart in the source

Protein | stoichiometry N [1] | stoichiometry N [2]
B1 | 2 | –
B2 | – | 2
B3 | 2 | –
